Data taken from patent US20240043567A1 (published 2024).

Biological target: QP3732 (Her2M2-Fc)
Assay: ELISA

EC50: 0.0307 µg/mL
B1: pertuzumab (antibody, V domains shown)
VH: EVQLVESGGGLVQPGGSLRLSCAASGFTFTDYTMDWVRQAPGKGLEWVADVNPNSGGSIYNQRFKGRFTLSVDRSKNTLYLQMNSLRAEDTAVYYCARNLGPSFYFDYWGQGTLVTVSS
VL: DIQMTQSPSSLSASVGDRVTITCKASQDVSIGVAWYQQKPGKAPKLLIYSASYRYTGVPSRFSGSGSGTDFTLTISSLQPEDFATYYCQQYYIYPYTFGQGTKVEIK
